Test results reported in patent publication US20190248904A1 (Astellas, published 2019).
Read-outs that look alike come from different tables or passages of the source.

T1: human BDCA-2 variant (human, UniProt Q8WTT0 1-213)
T1 construct: It was expressed on CHO-K1 cells together with full-length human FcεRIγ; also called human BDCA-2 variant/CHO cells; extracellular region of human BDCA-2
T1 chain: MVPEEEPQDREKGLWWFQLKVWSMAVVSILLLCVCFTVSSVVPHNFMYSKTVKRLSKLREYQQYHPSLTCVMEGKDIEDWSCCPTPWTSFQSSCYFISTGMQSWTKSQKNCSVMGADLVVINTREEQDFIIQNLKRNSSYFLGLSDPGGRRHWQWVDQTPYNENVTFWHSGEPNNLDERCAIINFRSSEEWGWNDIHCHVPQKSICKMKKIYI

T2: human BDCA-2 (human, UniProt Q8WTT0 1-213)
T2 sequence: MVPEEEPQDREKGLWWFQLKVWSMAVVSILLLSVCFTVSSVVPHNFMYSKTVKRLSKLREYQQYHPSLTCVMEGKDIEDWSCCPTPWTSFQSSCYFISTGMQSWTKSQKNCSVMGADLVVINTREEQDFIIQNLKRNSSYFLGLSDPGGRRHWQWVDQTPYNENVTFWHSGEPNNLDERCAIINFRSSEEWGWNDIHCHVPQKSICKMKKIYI


Key:
human BDCA-2 variant [1] = target: T1, human BDCA-2 variant; test: cell ELISA on human BDCA-2 variant/CHO cells, chemiluminescence
Description: (§1) In order to measure the antigen-specific binding activity of the antibody, the binding of the antibody to the human BDCA-2 variant/CHO cells prepared in Example 1 was evaluated. Specifically, the human BDCA-2 variant/CHO cells were first suspended in an RPMI1640 culture medium (Life Technologies, Inc.) at 2×10⁵ cells/mL, seeded at 50 μL per well in a poly-D-lysine-coated 384-well plate (Greiner Bio-One), and cultured overnight in a CO₂ incubator set at 37° C. Then, the culture medium was removed, and 20 μL of each of a hybridoma-derived antibody (the antibody purified in Example 2) and a comparative antibody which had been diluted stepwise from a concentration of 10000 ng/mL to 4.6 ng/mL (8 steps in a 3-fold dilution series) with a diluent solution (a Hank's Balanced Salt solution supplemented with 1% bovine serum albumin) was added thereto and reacted at room temperature for 1 hour. Next, the assay plate was washed with a washing solution (a Hank's Balanced Salt solution supplemented with 0.1% bovine serum albumin) and 20 μL of an HRP-labeled rabbit anti-mouse IgG antibody ([…]: Dako Ltd.) which had been diluted 5000-fold with a diluent solution was added thereto, and reacted at room temperature for 30 minutes. Thereafter, the assay plate was washed with a washing solution, 30 μL of BM-Chemiluminescence ELISA Substrate (POD) (Roche Diagnostics. Inc.) which is a chemiluminescence detection reagent was added thereto, and the amount of chemiluminescence thereof was measured by an EnVision counter (PerkinElmer, Inc.). For the measurement results, the EC50 values were determined by fitting a four-parameter logistic curve. In this test, as a comparative antibody, AC144 (Non-Patent Documents 1 to 4, Miltenyi Biotec) which is a mouse antibody against human BDCA-2 was used.

human BDCA-2 [2] = target: T2, human BDCA-2; test: cell-based or functional assay
human BDCA-2 [3] = target: T2, human BDCA-2; test: cell-based or functional assay; remark: listed apart in the source
human BDCA-2 variant [4] = target: T1, human BDCA-2 variant; test: cell ELISA on human BDCA-2 variant/CHO cells, average of three independent tests
Description: as §1
According to the method of Example 3, for a fully human antibody, the binding activity of the antibody against an extracellular region of human BDCA-2 was evaluated. […]

human BDCA-2 [5] = target: T2, human BDCA-2; test: cell-based or functional assay; remark: listed apart in the source

EC50 (human BDCA-2 variant [1])	IC50 of inhibition of IFNα production from ODN2216-stimulated human PBMC (pDCs) (human BDCA-2 [3])	IC90 of inhibition of IFNα production from ODN2216-stimulated human PBMC (pDCs) (human BDCA-2 [3])	EC50 (human BDCA-2 variant [4])	IC50 of inhibition of IFNα production from human PBMC (pDCs), first time (human BDCA-2 [5])	IC50 of inhibition of IFNα production from human PBMC (pDCs), second time (human BDCA-2 [5])	IC90 of inhibition of IFNα production from human PBMC (pDCs), first time (human BDCA-2 [5])	IC90 of inhibition of IFNα production from human PBMC (pDCs), second time (human BDCA-2 [5])	Molecule	also measured
0.133 µg/mL								AC144 (antibody)	IC50 of inhibition of IFNα production from ODN2216-stimulated human PBMC (pDCs) (human BDCA-2 [2]): 2.57 ng/mL; IC50 of inhibition of IFNα production from human PBMC (pDCs), first time (human BDCA-2 [2]): 2.12 ng/mL; IC50 of inhibition of IFNα production from human PBMC (pDCs), second time (human BDCA-2 [2]): 3.83 ng/mL; IC90 of inhibition of IFNα production from ODN2216-stimulated human PBMC (pDCs) (human BDCA-2 [2]): 56.5 ng/mL; IC90 of inhibition of IFNα production from human PBMC (pDCs), first time (human BDCA-2 [2]): 20.6 ng/mL; IC90 of inhibition of IFNα production from human PBMC (pDCs), second time (human BDCA-2 [2]): 26.8 ng/mL
0.059 µg/mL	0.27 ng/mL	1.03 ng/mL						BDC3-12A2 (chimeric) (antibody, V domains shown, Hybridoma-derived VelocImmune antibody: human variable regions with mouse constant regions) VH: QVQLVESGGGVVQPGRSLRLSCAASGFTLSSYGMHWVRQAPGKGLEWVAVIWYDGNDKYYADSVKGRFTISRDNSKNTLYLQVNSLRAEDTAVYYCARGTGTPYWYFDLWGRGTLVTVSS VL: EIVLTQSPATLSLSPGERATLSCRASQSVNNYLAWYQQKPGQAPRLLIYDASNRATGIPARFSGSGSGTDFTLTISSLEPEDFAVYYCQQRSTWPPYTFGQGTKLEIKR	
			0.08 µg/mL	0.35 ng/mL	0.68 ng/mL	1.94 ng/mL	1.76 ng/mL	Fully human BDC3-12A2 (antibody, human IgG1, kappa, V domains shown, pyroglutamylation at the N terminal of the heavy chain and deletion of lysine at the C terminal of the heavy chain in most of the purified antibody (Example 6), Human Igγ1 / human Igκ constant regions, expressed in CHOK1SV cells; also called fully human antibody of BDC3-12A2) VH: QVQLVESGGGVVQPGRSLRLSCAASGFTLSSYGMHWVRQAPGKGLEWVAVIWYDGNDKYYADSVKGRFTISRDNSKNTLYLQVNSLRAEDTAVYYCARGTGTPYWYFDLWGRGTLVTVSS VL: EIVLTQSPATLSLSPGERATLSCRASQSVNNYLAWYQQKPGQAPRLLIYDASNRATGIPARFSGSGSGTDFTLTISSLEPEDFAVYYCQQRSTWPPYTFGQGTKLEIKR	
			0.203 µg/mL	0.32 ng/mL	0.59 ng/mL	2.03 ng/mL	1.25 ng/mL	Fully human BDC13-32E3 (antibody, human IgG1, kappa, V domains shown, pyroglutamylation at the N terminal of the heavy chain and deletion of lysine at the C terminal of the heavy chain in most of the purified antibody (Example 6), Human Igγ1 / human Igκ constant regions, expressed in CHOK1SV cells; also called fully human antibody of BDC13-32E3) VH: QVQLQESGPGLVKPSQTLSLTCTVSGGSISSGGYYWNWIRQHPGKGLEWIGYIYYSGNTYYNPSLKSRVTISVDTSKNQFSLKLSSVTAADAAVYHCARGYGDYGGGYFDYWGQGTLVTVSS VL: DIQMTQSPSSLSASVGDRVTITCQASQDISNYLNWYQQKPGKAPKFLIYDVSNLETGVPSRFSGSGSGTDFTFTISSLQPEDIATYYCQQYDNLPYTFGQGTKLEIKR	
0.096 µg/mL	0.43 ng/mL	1.03 ng/mL						BDC13-32E3 (chimeric) (antibody, V domains shown, Hybridoma-derived VelocImmune antibody: human variable regions with mouse constant regions) VH: QVQLQESGPGLVKPSQTLSLTCTVSGGSISSGGYYWNWIRQHPGKGLEWIGYIYYSGNTYYNPSLKSRVTISVDTSKNQFSLKLSSVTAADAAVYHCARGYGDYGGGYFDYWGQGTLVTVSS VL: DIQMTQSPSSLSASVGDRVTITCQASQDISNYLNWYQQKPGKAPKFLIYDVSNLETGVPSRFSGSGSGTDFTFTISSLQPEDIATYYCQQYDNLPYTFGQGTKLEIKR	
			0.088 µg/mL	0.54 ng/mL	0.24 ng/mL	1.19 ng/mL	1.98 ng/mL	Fully human BDC3-12F5 (antibody, human IgG1, kappa, V domains shown, deletion of lysine at the C terminal of the heavy chain in most of the purified antibody (Example 6), Human Igγ1 / human Igκ constant regions, expressed in CHOK1SV cells; also called fully human antibody of BDC3-12F5) VH: EVQLVESGGGLVQPGGSLRLSCAASGFTFSNYLMNWVRQAPGKGLEWVANIEQDGSEKYYVDSVKGRFTISRDNAKNSLYLQMNSLRAEDTAVYFCARDGDTAMITFDFWGQGTLVTVSS VL: DIQMTQSPSSVSASVGDRVTITCRASQGIRRWLAWYQQKPGKAPKLLIYAASSLQRGVPSRFSGSGSGTDFTLTISSLQPEDFATYYCQQANSFPWTFGQGTKVEIKR	
0.057 µg/mL	0.23 ng/mL	0.93 ng/mL						BDC3-12F5 (chimeric) (antibody, V domains shown, Hybridoma-derived VelocImmune antibody: human variable regions with mouse constant regions) VH: EVQLVESGGGLVQPGGSLRLSCAASGFTFSNYLMNWVRQAPGKGLEWVANIEQDGSEKYYVDSVKGRFTISRDNAKNSLYLQMNSLRAEDTAVYFCARDGDTAMITFDFWGQGTLVTVSS VL: DIQMTQSPSSVSASVGDRVTITCRASQGIRRWLAWYQQKPGKAPKLLIYAASSLQRGVPSRFSGSGSGTDFTLTISSLQPEDFATYYCQQANSFPWTFGQGTKVEIKR	
